From patent US4254225A, “Novel neutral glucoamylase and method for its production” (priority 1978, dated 1981) come the findings set out here.

Series [1] can be described thus: Substrate specificity: reaction rate on various substrates at 1% concentration. Format: biochemical. As for the experimental part:
^a The enzymatic activities of each glucoamylase were determined with
the substrates present at a 1% concentration; each enzyme' s activity in
relation to dextrin was assigned the value 100, and the activities on the
other substrates are presented as relative
(§1) A 0.5-ml aliquot of a suitably diluted enzyme solution was added to 0.5 ml of a 2% solution of a spray-dried maltodextrin (D.E. about 10) in 0.1 M acetate buffer solution (pH 6.0) and this was incubated at 60° C. for precisely 10 minutes. The enzyme reaction was then stopped by heating the mixture for 5 minutes in a boiling water bath. The amount of dextrose produced was determined by the glucose oxidase method. The amount of enzyme producing 1 micromole of dextrose per minute was defined as 1 unit.

A short description of series [2]: Relationship between reaction pH and enzymatic activity (optimum pH). In kind it is biochemical. The note with it: values marked with an asterisk (own). As for the experimental part: as §1
Series [3] is classed as biochemical. The note with it: values marked with an asterisk (own).
Series [4] can be described thus: Saccharification of about 30% starch hydrolyzate to dextrose. The conditions noted are these: same substrate concentration as Example 3; pH 4.3 at 60° C. Format: biochemical.

B1: Aspergillus niger Glucoamylase: conventional glucoamylase from Aspergillus niger, available from Enzyme Development Corporation (protein, UniProt P69328 25-640, looked up)
Glucoamylase: ATLDSWLSNEATVARTAILNNIGADGAWVSGADSGIVVASPSTDNPDYFYTWTRDSGLVLKTLVDLFRNGDTSLLSTIENYISAQAIVQGISNPSGDLSSGAGLGEPKFNVDETAYTGSWGRPQRDGPALRATAMIGFGQWLLDNGYTSTATDIVWPLVRNDLSYVAQYWNQTGYDLWEEVNGSSFFTIAVQHRALVEGSAFATAVGSSCSWCDSQAPEILCYLQSFWTGSFILANFDSSRSGKDANTLLGSIHTFDPEAACDDSTFQPCSPRALANHKEVVDSFRSIYTLNDGLSDSEAVAVGRYPEDTYYNGNPWFLCTLAAAEQLYDALYQWDKQGSLEVTDVSLDFFKALYSDAATGTYSSSSSTYSSIVDAVKTFADGFVSIVETHAASNGSMSEQYDKSDGEQLSARDLTWSYAALLTANNRRNSVVPASWGETSASSVPGTCAATSAIGTYSSVTVTSWPSIVATGGTTTTATPTGSGSVTSTSKTTATASKTSTSTSSTSCTTPTAVAVTFDLTATTTYGENIYLVGSISQLGDWETSDGIALSADKYTSSDPLWYVTVTLPAGESFEYKFIRIESDDSVEWESDPNREYTVPQACGTSTATVTDTWR
With B1, the “Reaction Rate” value in series [1] (substrate Amylpectin, relative to dextrin = 100) is given as 113; in series [1] (substrate Dextrin (D.E. 10), relative, activity on dextrin assigned 100) it was 100; in series [1] (substrate Glycogen, relative to dextrin = 100), 100; in series [1] (substrate Maltohexaose, relative to dextrin = 100), 100; in series [1] (substrate Maltose, relative to dextrin = 100), 26; in series [1] (substrate Maltotriose, relative to dextrin = 100), 12. The “Reaction Rate” value in series [1] (substrate Panose, relative to dextrin = 100) was 47; in series [1] (substrate Pullulan, relative to dextrin = 100) it was 2; in series [1] (substrate Soluble Starch, relative to dextrin = 100), 95. Further, in series [2], the “Optimum pH” value came out at 4.5. Further, the “Optimum Temp.” value in series [3] was 70 °C. The dextrose yield in series [4] was determined as 96.5%.
